Results published in US20250163116A1, “NEW METHOD TO TREAT INFECTIOUS DISEASES” (INSERM (INSTITUT NATIONAL DE LA SANTÉ ET DE LA RECHERCHE …, priority 2022, published 2025).

Tested on: HDMECs infected with Nm 2C4.3
Experiment: Integrity of HDMEC monolayers infected with N. meningitidis (VE-cadherin at intercellular junctions, immunofluorescence)
Format: cell-based, human
Details: 1 μg/mL added 30 min after initiation of Nm infection, 2 h 30
Experimental: FIG. 1. Exogenous ANGPTL4 exerts protective effects on dermal microvascular endothelial cells infected by N. meningitidis. A. HDMECs were infected with Nm 2C4.3 for 30 min and treated with 1 μg/mL of recombinant human ANGPTL4 for 2 h 30. Cells were fixed and stained for cellular actin, VE-cadherin and DAPI and analyzed by fluorescent microscopy. Quantifications of VE-cadherin enrichment at intercellular junctions and of intercellular spaces area were performed on 30 fields with Image J software. Kruskal-Wallis test ** P<0.001; P<0.0001. B. HDMEC were either uninfected or infected with N. meningitidis 2C4.3 for 30 min and treated with 1 μg mL−1 of recombinant human ANGPTL4, its N-terminal portion (nANGPTL4) or its C-terminal portion (cANGPTL4) for 2 h 30. Caspase-3/7 reagent was added to detect apoptosis in real time over 9 h using the IncuCyte® Live-Cell Analysis System
FIG. 2: Vascular protection is conferred by the N-terminal part of ANGPTL4. A, Schematic representation of ANGPTL4 structure. ANGPTL4 contains a N-terminal portion (nANGPTL4, aa 26-164) linked to a C-terminal portion (cANGPTL4, aa 164-406) by a cleavable linker. nANGPTL4 contains a highly conserved lipoprotein lipase (LPL) binding domain (aa 44-55), two cysteines on position 76 and 80 involved in protein oligomerization and a coiled-coil domain (aa 100-143). The C-terminal portion encodes a fibrinogen-like domain. B, HDMECs were infected with Nm 2C4.3 for 30 min and treated with 1 μg/mL of recombinant human ANGPTL4, nANGPTL4 or cANGPTL4 for 2 h 30. Cells were fixed and stained for cellular actin, VE-cadherin and DAPI and analyzed by fluorescent microscopy. B. Quantifications of VE-cadherin enrichment at intercellular junctions and of intercellular spaces area were performed on 30 fields with Image J software. Kruskal-Wallis test ** P<0.001, *** P<0.0001 of four independent experiments performed in triplicate.
FIG. 3: Vascular protection is conferred by a novel binding motif (aa 66-80) present in the N-terminal part of ANGPTL4. A, the indicated peptides were derived from nANGPTL4. B, HDMECs were infected with Nm 2C4.3 for 30 min and treated with 1 μg/mL of each peptides. Quantifications of VE-cadherin enrichment at intercellular junctions was performed on 30 fields with Image J software.
FIG. 4: Vascular protection is conferred by interaction of nANGPTL4 with Syndecan-4. A, HDMECs were infected with Nm 2C4.3 for 30 min and treated with 1 μg/mL of recombinant human ANGPTL4, nANGPTL4 or cANGPTL4 in the absence or in the presence of anti-SDC4 antibody for 2 h 30. Cells were fixed and stained for cellular actin, VE-cadherin and DAPI and analysed by fluorescent microscopy. Quantifications of VE-cadherin enrichment at intercellular junctions and of intercellular spaces area were performed on 30 fields with Image J software. Kruskal-Wallis test ** P<0.001, **** P<0.00001, ns1 P=0.2172; ns2 P>0.999 of four independent experiments performed in triplicate. B, HDMECs were transfected with small interfering RNA (siRNA) against SDC4 or non-targeting siRNA controls for 48 h, infected with Nm 2C4.3 for 30 min and treated with 1 μg/mL of recombinant human ANGPTL4, for 2 h 30. Quantifications of VE-cadherin enrichment at intercellular junctions and of intercellular spaces area were performed on 30 fields with Image J software. Kruskal-Wallis test ** P<0.001, *** P<0.0001, of two independent experiments performed in triplicate.
The day of infection, a suspension of the bacteria from an overnight culture on GCB agar plate was adjusted to OD600=0.05 and incubated for 2 h at 37° C. in a pre-warmed cell culture medium. Cells were infected with bacteria at a multiplicity of infection (MOI) of 100 bacteria per cell (OD=0.1) for 30 minutes, washed twice to remove non-adherent bacteria and infection was allowed to proceed for various periods of time. Cells were then washed and fixed in 4% paraformaldehyde for immunofluorescence analysis. […]

| Molecule | protective effect on monolayer integrity (adherens junctions, cell detachment) of infected HDMECs |
| --- | --- |
| ANGPTL4: Recombinant human ANGPTL4 (Angiopoietin-like 4), full length, SEQ ID NO: 1, purchased from R&D Systems (protein, listed as Homo sapiens) MSGAPTAGAALMLCAATAVLLSAQGGPVQSKSPRFASWDEMNVLAHGLLQLGQGLREHAERTRSQLSALERRLSACGSACQGTEGSTDLPLAPESRVDPEVLHSLQTQLKAQNSRIQQLFHKVAQQQRHLEKQHLRIQHLQSQFGLLDHKHLDHEVAKPARRKRLPEMAQPVDPAHNVSRLHRLPRDCQELFQVGERQSGLFEIQPQGSPPFLVNCKMTSDGGWTVIQRRHDGSVDFNRPWEAYKAGFGDPHGEFWLGLEKVHSITGDRNSRLAVQLRDWDGNAELLQFSVHLGGEDTAYSLQLTAPVAGQLGATTVPPSGLSVPFSTWDQDHDLRRDKNCAKSLSGGWWFGTCSHSNLNGQYFRSIPQQRQKLKKGIFWKTWRGRYYPLQATTMLIQPMAAEAAS | entirely preserved the integrity of this monolayer |
| nANGPTL4: N-terminal fragment of ANGPTL4, aa 26-164, SEQ ID NO: 24, purchased from R&D Systems (protein, nANGPTL4) GPVQSKSPRFASWDEMNVLAHGLLQLGQGLREHAERTRSQLSALERRLSACGSACQGTEGSTDLPLAPESRVDPEVLHSLQTQLKAQNSRIQQLFHKVAQQQRHLEKQHLRIQHLQSQFGLLDHKHLDHEVAKPARRK | sufficient to maintain cell monolayer integrity upon infection |
| cANGPTL4: C-terminal fragment of ANGPTL4, aa 164-406, fibrinogen-like domain, purchased from R&D Systems (protein, listed as Homo sapiens) RLPEMAQPVDPAHNVSRLHRLPRDCQELFQVGERQSGLFEIQPQGSPPFLVNCKMTSDGGWTVIQRRHDGSVDFNRPWEAYKAGFGDPHGEFWLGLEKVHSITGDRNSRLAVQLRDWDGNAELLQFSVHLGGEDTAYSLQLTAPVAGQLGATTVPPSGLSVPFSTWDQDHDLRRDKNCAKSLSGGWWFGTCSHSNLNGQYFRSIPQQRQKLKKGIFWKTWRGRYYPLQATTMLIQPMAAEAAS | no significant protective effect |
